Reference: the DeepSol protein solubility set

experiment: soluble on expression in E. coli; label from the status in PepcDB or PDB records

Sequence | soluble on expression in E. coli
PVNGALDQYSARAANILAGNLDNHPLLEITALDFRMKANSDVLIAVTGAPLTLTVGGRPCSQWEPVSVRAGESVSIRGIHRGLRAYLAIHGSIEAGTLLGSAAPDTVVGFGLQLQEGTTLLSRRSVSPVRQPYFDLPLFRLGLERPSMGSDLSVDVTDGPDVAEFGESGELLFTSEYVVSGRSNHIGLRLGGELPERTSSDEVLSRGVPVGAVEVPSREELLVLHRGRGVTAGYPVLAVVTSTGLDVLAQARPGDKVRFRKTT | not soluble
PYPIDLVSVVIPVYNEEASLPELLRRTEAACLELGRAFEIVLVDDGSRDRSAELLQAAAERDGSAVVAVILNRNYGQHAAILAGFEQSRGDLVITLDADLQNPPEEIPRLVERAAQGYDVVGSIRAERQDSAWRRWPSRLVNLAVQRSTGVAMHDYGCMLRAYRRSIVEAMLACRERSTFIPILANGFARHTCEIRVAHAERAHGESKYSAMRLLNLMFDLVTCMTTTPLR | not soluble
QALQTLVEKISIVFFQKPFLHQATFNRRLKTTGGRYHLASHHLDFNPTVFLKYGQEELEKVIKHELCHYHLHLAGKGYQHKDKDFKELLAKTGGARYAPPLVERKKAVFHQYQCQSCGEVILRKRRIDTTRYVCGKCHGRLSWQ | not soluble
QAVVTQESALTTSPGETVTLTCRSSTGAVTTSNYANWVQEKPDHLFTGLIGGTNKRAPGVPARFSGSLIGDKAALTITGAQTEDEAIYFCALWDSNHLVFGGGTKLTVLGQPKSSPSVTLFPPSSEELETNKATLVCTITDFYPGVVTVDWKVDGTPVTQGMETTQPSKQSNNKYMASSYLTLTARAWERHSSYSCQVTHEGHTVEKSLSPADC | soluble
QDLTLSFNHIKSAVIYSAYPLTDKQVGELVQMLNKRFDSELKISVEIEPELIGGIKVEVGDQVLDLSVQGKLSALYTTMTN | not soluble
QEQAVILRFGKYYETVGPGLNFYFPPIDKRFQENVTRERAYSKQGQMLTEDENIVEVPLTVQYKISNLQDFVLNVDQPEVSLQQATESALRHVAGSTTMDRILTEGREQMATEVRERLQRFLDTYRTGITVTQVNIQSAQAPREVQEAFDDVIRAREDEQREKNQAEAYANGVVPEARGQAQRIIEEANGYRDEVISRAQGEADRFSKLLVEYRKAPEVTRERLYLDTMQEVFSQTSKVLVTGQQGQNNLLYLPLDKMIDGRNAAPATGAGASAGGGSASASDLGSRIVNDLRQQDARTRESR | not soluble
QFKVKSAFKKYSQVATQNGVTGAQAALRILQRGGLENVNVEMTSGMLSDHYDPRQKVLRLSEEVYSLPSIASVGVAAHEAGHALQDKVNYSPLAIRSAM | not soluble
QGGPVEILPYLFLGSCSHSSDLQGLQACGITAVLNVSASCPNHFEGLFRYKSIPVEDNQMVEISAWFQEAIGFIDWVKNSGGRVLVHSQAGISRSATICLAYLMQSRRVRLDEAFDFVKQRRGVISPNFSFMGQLLQFETQVLCH | soluble
QKIEKQYDADLEQILIQWITTQCRKDVGRPQPGRENFQNWLKDGTVLCELINALYPEGQAPVKKIQASTMAFKQMEQISQFLQAAERYGINTTDIFQTVDLWEGKNMACVQRTLMNLGGLAVARDDGLFSGDPNWFPKKSKE | soluble
QKTGIYDSLRLKLEIVKFYSPNERDAAFHSGNVEGTVIDYTGAAMQQAGGIDLQLVMRLDGYFRLVMSKDYTGESLETLKGKNLGISRNTVIEYTTDRIINTAGLDESEITKTEVNKIPLRLEMLRSGQIDAAVLPDPFITIAMADG | not soluble
QLAAIDAFDRLTALMTSHFDIDVAFVGLMDEHEERFVACEGANWRTLAREDTICTHTILSDETMVVEDTHEDPRFAEVDALKRLNIRSYAGGRITDREGNAIGAVCCTDGEPRRYTQTERDDLQRFADEVEEQLLLRRRLQGDR | not soluble
QLQEKLYVPVKEYPDFNFVGRILGPRGLTAKQLEAETGCKIMVRGKGSMRDKKKEEQNRGKPNWEHLNEDLHVLITVEDAQNRAELKLKRAVEEVKKLLVPAAEGEDSLKKMKLMELAILNGTYRDANLKSPALHHHHHH | soluble
QNLPQGDLMQHGMMAVKAATLSDAEVRQVADQACAESDQQNRIAPANSKYGQRLDKIAKALGDQIDGVPVNYKVYLTEEVNAWAMANGCIRVYSGLMELMSDNEIEGVLGHEMGHVALGHTRKAAQTAYAAAAVRGAAGASKSGALAALSGSQLGELTESLVNAQFSQSQESDADDFSYELLKKRGVNTQGLVTAFEKLAKLGGGDSSMFDSHPGSQARADHIRQRIAADR | not soluble
QQCGQTAPLINERLSYMKDVAGYKAENHLPIEDRIQEEKVINSAMAQAESLGLNGESIKPLMVAQINAAKAIQYRYRADWLSQPEPGWQPKPLDDVRANIGELSTKILEQIAEELKTCKPAEMGDKAHFINTIRQHNLTSADVEAIFSTFNQVKLK | soluble
QRKKAEEALRLSNIYNRSLIESSLDPLVTIGRDGKITDVNCATEQVTGYPRNDLIKTDFSDYFTEPENARAGYKQVFTDGEVRDYPLEIQHKDGHITPVLYNASVYRDENGEVIGVFAAARDIT | not soluble
QRQSPIYHAQATVLIKSAEKSGATSGLQQFQELGLMIGNSEVENEILMLKSKRLTAIVVDKLDLDVSIYKQGFWRNESLYGNSPVSIQITDRDSTENYSFRIQINDAHSFQLTHFEQKERNGIGDIKIDGSFGRPIATPVGELKLNTTLFFADSWKGEVLYVTKENTRKVVERYNQDLQVSLADKKATIVNLSLKNEDLDRAKNFIDALIASYNDDVMNDKKSVAVSTAAFIDERLAMIGGELGTVDTEIETFKKRNNITDISTDVGTYLKSSADLQKDQLIVERNLSLAKYIQSFLRQTSTDNELMPANLGLTERGIDNSITLYNELKLKYDRLKQSSSENSPAVQEVGMQLVAMRKSINAAVDNYIKTLNLQLREVNKEMSRTKEQISAVPTQEKIMSTILRQQKIKEELYLYLLNKREENALRLAITESNAKTVDSADGSSEPISPRKP | not soluble
QSALTQPASVSGSPGQSITISCTGTSSDVGGYNYVSWYQQHPGKAPKLMIYGVTNRPSGVSNRFSGSKSGNTASLTISGLQAGDEADYYCSSYTSTRTPYVFGTGTKVEIKRTVAAPSVFIFPPSDEQLKSGTASVVCLLNNFYPREAKVQWKVDNALQSGNSQESVTEQDSKDSTYSLSSTLTLSKADYEKHKVYACEVTHQGLSSPVTKSFNRGEC | soluble
QSGHTKKINDKEMLDYKGRIPVGTLTLKFDQPVKDPILDFSGLGGYNIFSAHHEEASHEGIRNWEVRNGKIVVTGESASVVGAQINDQIRGSFNHTDLELETPGVKLVELAKNSNLKVDDRSISTVAANNDYVCNTPNDYQTLPEELENGPSYEQNDAFLSPVMKPAGCGSVLAQGEFSELKFTLFSSVEPMSSFAHDTHKTGLLYFAGGVNGGNANPVTPIPMLEGYSKPQEVSDTSNGDLFRMSIRLPEEPVKGSVSVGDFVWIDKDADGRQDDNEPGLAGVKLWLYGPDGGPVTDVHGKVVKSVTTGEDGKYSFKDLPVLTGSDSYTVKVVDVPAGYKPTLSGTGKVPAFKDSSTDLAKSTPGALSENGAQDLTLDFGFVKESATPSDPTVPGFK | not soluble
QTLDIQRGATLFNRACIACHDTGGNIIQPGATLFTKDLERNGVDTEEEIYRQTYFGKGRMPGFGEKCTPRGQCTFGPRLQDEEIKLLAEFVKFQADQGWPTVSTD | soluble
QVQLLESGAVLARPGTSVKISCKASGFNIKDYYMHWVKQRPGQGLEWIGGNDPANGHSMYDPKFQGRVTITADTSTSTVFMELSSLRSEDTAVYYCARDSGYAMDYWGQGTLVTVSSASTKGPSVFPLAPCSRSTSESTAALGCLVKDYFPEPVTVSWNSGALTSGVHTFPAVLQSSGLYSLSSVVTVPSSSLGTKTYTCNVDHKPSNTKVDKRVES | soluble
QVQLQQPGTELVRPGASVILSCKASGYTFTSYWINWVKQRPGQGLEWVGNIFPSDSYTNYNQKFKDKATLTVDKSSSTAYMQVNSPTSEDSAVYYCTRGARDTWFAYWGQGTLVTVSVAKTTPPSVFPLAPGSAAQTNSMVTLGCLVKGYFPEPVTVTWNSGSLSSGVHTFPAVLQSDLYTLSSSVTVPSSTWPSETVTCNVAHPASSTKVDKKIVPRDC | soluble
RARADKQHVLDMLFSAFEKHQYYNLKDLVDITKQPVVYLKEILKEIGVQNVKGIHKNTWELKPEYRHYQ | soluble
REEDPHEGKIWFHGKISKQEAYNLLMTVGQVCSFLVRPSDNTPGDYSLYFRTNENIQRFKICPTPNNQFMMGGRYYNSIGDIIDHYRKEQIVEGYYLKEPVPMQDQ | soluble
REGKASTVNPGNGNVPDAEDLQALFDVIYEVMPEPTVNVDGPLQAHVTNLDSSSFLGRIGLIRVHSGSLKKGQQVAWIHYDEEGNQHTKTAKIAELLRTVGVTRVPADEVVAGDIAAISGIDSIMIGDTLADLEHPVALPRITVDEPAISMTIGVNTSPLAGRGGGDKLTARVVKARLEQELIGNVSLRVLPTERPDAWEVQGRGEMALSVLVETMRREGFELTVGKPQVVTQTVDGKLFEPYEHMVIDIPSEYQGNVTQLMAARKGQMLSMDNISDEWVRMEYKVPARGLISFRTMFMTETRGTGIANSYSEGLDEWAGEIKGRATGSLVADRSGQITAYALQQLADRGNFFVEPGTEAYEGMVVGANNRDEDMDVNITREKKLTNMRSATADATVTLAKARSLSLDEAMEFCGQDECVEVTPDVLRVRKVILNATERGRARAREKARNK | not soluble
RFNVFDFRGATLIADYGHNPDAIQALVRAIDTMPARRRSVVISGAGDRRDEDLRQQTEILGGAFDDVILYQDQCQRGRADGEVVALLRQGLQQAPRTRHIDEIQGEFVAIDAALERLAPGDLCLILVDQ | not soluble
RFSEVLSTPEYDNAKSPVTLALGHDIGGKPVITDLAKMPHLLVAGTTGSGKSVGVNAMILSILFKSGPEDAKLIMIDPKMLELSIYEGIPHLLCPVVTDMKDAANALRWSVAEMERRYKLMAKMGVRNLSGFNQKVKEAQDAGEPLADPLYKRESIHDEAPLLTKLPTIVVVVDEFADMMMIVGKKVEELIARIAQKARAAGIHLILATQRPSV | not soluble
RKADEGKWQLVGGDIQNAIVQNICMMDDNKIACEVFGTPNGVDGRTRVCVSDASVFDFEWYEDEIYGGLIFDTFFYSPWDKLLYAKFGGIMLRSKESFITSFISPTVVQGVDVYTLAGKIRIESETPVSEVLLFDLAGRMVLRQTIDNKIYSDIDTNGLKRSGIYVVSVRLSSGQVFSHKVQV | not soluble
RKMFRALMPALEELTFDPSSAHPSLVVSSSGRRVECSEQKAPPAGEDPRQFDKAVAVVAHQQLSEGEHYWEVDVGDKPRWALGVIAAEAPRRGRLHAVPSQGLWLLGLREGKILEAHVEAKEPRALRSPERRPTRIGLYLSFGDGVLSFYDASDADALVPLFAFHERLPRPVYPFFDVCWHDKGKNAQPLLLV | soluble
